Here are results for one substance from article PMC11576762.

In this test the target is human TPC1 with C-terminal mVenus (human) (UniProt Q9ULQ1). Description: FRET or BRET; Two-hybrid FRET in live HEK293 cells; donor mTq2 constructs (0.7 µg DNA), acceptor mVenus constructs (1.5 µg DNA); confocal imaging, regions of interest around mVenus-positive lysosomes; maximum FRET efficiency from two-hybrid curves; no apilimod. A general note: BRET reads energy transfer from a luciferase to a nearby fluorophore.

In turn, “mTq2-Rab5 (from UniProt P20339 1-215) (natural protein)” yielded an FRET efficiency of 29%.
